Target: T1, human CTLA-4 expressed on cells (human, UniProt P16410 36-223)
T1 construct: whole, on cells; On stably or transiently transfected HEK293 cells; also called hCTLA-4; HEK293-hCTLA-4 cells
Assay: flow cytometry on HEK293-hCTLA-4 cells
Procedure: To test the binding of antibodies to CTLA-4 under more physiological conditions, the binding of CTLA-4 antibodies to cell-surface CTLA-4 was tested. […] The surface expression of hCTLA-4 in the obtained cell line was tested using a commercial anti-CTLA-4 antibody and compared to the parent cell line (HEK293 without transfection). […] The anti-CTLA-4 antibodies were incubated in serial dilution concentrations with the HEK293-hCTLA-4 cells for 1 hour on ice. Following a wash step, an anti-human antibody conjugated to ALEXA FLUOR® 647® was added for an additional hour. The cells were washed, and propidium iodide (PI) was added to exclude dead cells. The fluorescent signal was measured using FACS and analyzed. Dead cells were removed based on the PI signal. The population was gated based on forward and side scatter (FSC and SSC) parameters, and doublets were removed. The Median Fluorescent Intensity (MFI) of the appropriate channel was calculated for the live single cells from each group. The MFI was plotted versus antibody concentration in Prism software (V6.01) and kinetic parameters were obtained using a curve fit dose response function with four parameters. […] The lower EC₅₀ values indicate increased binding affinity to cell surface hCTLA-4.

T1 sequence (P16410 36-223): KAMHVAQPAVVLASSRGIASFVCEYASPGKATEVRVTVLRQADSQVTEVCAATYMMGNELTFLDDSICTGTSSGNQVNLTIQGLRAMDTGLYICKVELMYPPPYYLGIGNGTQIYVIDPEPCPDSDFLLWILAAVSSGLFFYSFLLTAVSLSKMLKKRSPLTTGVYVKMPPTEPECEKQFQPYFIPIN

Binder	EC50 [nM]
Ab55h-PM1 (antibody, V domains shown) VH: QVQLQESGPGLVKPSETLSLTCAVSGYSISGDYYWNWIRQPPGKGLEWIGSIYHSGYTYYNPSLKSRVTISVDTSKNQFSLKLSSVTAADTAVYYCARDSGWYVIAFDYWGQGTLVTVSS VL: EIVMTQSPATLSVSPGERATLSCRASQSVSSNLAWYQEKPGQAPRLLIYGASTRATGIPARFSGSGSGTEFTLTISSLQSEDFAVYYCQQYNNWPPLTFGGGTKVEIK	0.27
Ab55h-PM15 (antibody, V domains shown) VH: QVQLQESGPGLVKPSETLSLTCAVSGYSISGDYYWGWIRQPPGKGLEWIGSIYHSGYTYYNPSLKSRVTISVDTSKNQFSLKLSSVTAADTAVYYCARDSGAYVIAFDYWGQGTLVTVSS VL: EIVMTQSPATLSVSPGERATLSCRASQSVSSNLAWYQEKPGQAPRLLIYGASTRATGIPARFSGSGSGTEFTLTISSLQSEDFAVYYCQQYNNWPPLTFGGGTKVEIK	0.32
Ab55h-PM12 (antibody, V domains shown) VH: QVQLQESGPGLVKPSETLSLTCAVSGYSISGDYYWGWIRQPPGKGLEWIGSIYHSGYTYYNPSLKSRVTISVDTSKNQFSLKLSSVTAADTAVYYCARDSGWYVIAYDYWGQGTLVTVSS VL: EIVMTQSPATLSVSPGERATLSCRASQSVSSNLAWYQEKPGQAPRLLIYGASTRATGIPARFSGSGSGTEFTLTISSLQSEDFAVYYCQQYNNWPPLTFGGGTKVEIK	0.24
Ab55h-PM4 (antibody, V domains shown) VH: QVQLQESGPGLVKPSETLSLTCAVSGYSISGDYYWGWIRQPPGKGLEWIGSIYHSGYTYYNPSVKSRVTISVDTSKNQFSLKLSSVTAADTAVYYCARDSGWYVIAFDYWGQGTLVTVSS VL: EIVMTQSPATLSVSPGERATLSCRASQSVSSNLAWYQEKPGQAPRLLIYGASTRATGIPARFSGSGSGTEFTLTISSLQSEDFAVYYCQQYNNWPPLTFGGGTKVEIK	0.39
Ab55h-PM8 (antibody, V domains shown) VH: QVQLQESGPGLVKPSETLSLTCAVSGYSISGDYYWGWIRQPPGKGLEWIGSIYHSGYTYYNPSLKSRVTISVDTSKNQFSLKLSSVTAADTAVYYCARDSGWYVIAFDYWGQGTLVTVSS VL: EIVMTQSPATLSVSPGERATLSCRASQSVSSNLAWYQEKPGQAPRLLIYAASTRATGIPARFSGSGSGTEFTLTISSLQSEDFAVYYCQQYNNWPPLTFGGGTKVEIK	0.16
Ab55h-PM5 (antibody, V domains shown) VH: QVQLQESGPGLVKPSETLSLTCAVSGYSISGDYYWGWIRQPPGKGLEWIGSIYHSGYTYYNPSLKSRVTISVDTSKNQFSLKLSSVTAADTAVYYCARDSGWYVIAFAYWGQGTLVTVSS VL: EIVMTQSPATLSVSPGERATLSCRASQSVSSNLAWYQEKPGQAPRLLIYGASTRATGIPARFSGSGSGTEFTLTISSLQSEDFAVYYCQQYNNWPPLTFGGGTKVEIK	0.24
Ab55h-PM11 (antibody, V domains shown) VH: QVQLQESGPGLVKPSETLSLTCAVSGYSISGDYYWGWIRQPPGKGLEWIGSIYHSGYTYYNPSLKSRVTISVDTSKNQFSLKLSSVTAADTAVYYCARDSGWYVIGFDYWGQGTLVTVSS VL: EIVMTQSPATLSVSPGERATLSCRASQSVSSNLAWYQEKPGQAPRLLIYGASTRATGIPARFSGSGSGTEFTLTISSLQSEDFAVYYCQQYNNWPPLTFGGGTKVEIK	0.21

The next lines start with the values.

EC50 [nM]	Binder
0.42	Ab55h-PM3 (antibody, V domains shown) VH: QVQLQESGPGLVKPSETLSLTCAVSGYSISGDYYWGWIRQPPGKGLEWIGSIYHSAYTYYNPSLKSRVTISVDTSKNQFSLKLSSVTAADTAVYYCARDSGWYVIAFDYWGQGTLVTVSS VL: EIVMTQSPATLSVSPGERATLSCRASQSVSSNLAWYQEKPGQAPRLLIYGASTRATGIPARFSGSGSGTEFTLTISSLQSEDFAVYYCQQYNNWPPLTFGGGTKVEIK
0.26	Ab55h-PM9 (antibody, V domains shown) VH: QVQLQESGPGLVKPSETLSLTCAVSGYSISGDYYWGWIRQPPGKGLEWIGSIYHSGYTYYNPSLKSRVTISVDTSKNQFSLKLSSVTAADTAVYYCARDSGWYVIAFDYWGQGTLVTVSS VL: EIVMTQSPATLSVSPGERATLSCRASQSVSSNLAWYQEKPGQAPRLLIYGATTRATGIPARFSGSGSGTEFTLTISSLQSEDFAVYYCQQYNNWPPLTFGGGTKVEIK
0.18	Ab55h-PM7 (antibody, V domains shown) VH: QVQLQESGPGLVKPSETLSLTCAVSGYSISGDYYWGWIRQPPGKGLEWIGSIYHSGYTYYNPSLKSRVTISVDTSKNQFSLKLSSVTAADTAVYYCARDSGWYVIAFDYWGQGTLVTVSS VL: EIVMTQSPATLSVSPGERATLSCRASQSISSNLAWYQEKPGQAPRLLIYGASTRATGIPARFSGSGSGTEFTLTISSLQSEDFAVYYCQQYNNWPPLTFGGGTKVEIK
0.27	Ab55h-PM16 (antibody, V domains shown) VH: QVQLQESGPGLVKPSETLSLTCAVSGYSISGDYYWGWIRQPPGKGLEWIGSIYHSGYTYYNPSLKSRVTISVDTSKNQFSLKLSSVTAADTAVYYCARDSGWYVIAFDYWGQGTLVTVSS VL: EIVMTQSPATLSVSPGERATLSCRASQSVSSNLAWYQEKPGQAPRLLIYGASTRATGIPARFSGSGSGTEFTLTISSLQSEDFAVYYCQQYANWPPLTFGGGTKVEIK
0.52	Ab55h-PM2 (antibody, V domains shown) VH: QVQLQESGPGLVKPSETLSLTCAVSGYSISGDYYWGWIRQPPGKGLEWIGSIYHDGYTYYNPSLKSRVTISVDTSKNQFSLKLSSVTAADTAVYYCARDSGWYVIAFDYWGQGTLVTVSS VL: EIVMTQSPATLSVSPGERATLSCRASQSVSSNLAWYQEKPGQAPRLLIYGASTRATGIPARFSGSGSGTEFTLTISSLQSEDFAVYYCQQYNNWPPLTFGGGTKVEIK
0.32	Ab55h-PM14 (antibody, V domains shown) VH: QVQLQESGPGLVKPSETLSLTCAVSGYSISGDYYWGWIRQPPGKGLEWIGSIYHSGYTYYNPSLKSRVTISVDTSKNQFSLKLSSVTAADTAVYYCARDSGFYVIAFDYWGQGTLVTVSS VL: EIVMTQSPATLSVSPGERATLSCRASQSVSSNLAWYQEKPGQAPRLLIYGASTRATGIPARFSGSGSGTEFTLTISSLQSEDFAVYYCQQYNNWPPLTFGGGTKVEIK
0.15	Ab55h-PM6 (antibody, V domains shown) VH: QVQLQESGPGLVKPSETLSLTCAVSGYSISGDYYWGWIRQPPGKGLEWIGSIYHSGYTYYNPSLKSRVTISVDTSKNQFSLKLSSVTAADTAVYYCARDSGWYVIAFDIWGQGTLVTVSS VL: EIVMTQSPATLSVSPGERATLSCRASQSVSSNLAWYQEKPGQAPRLLIYGASTRATGIPARFSGSGSGTEFTLTISSLQSEDFAVYYCQQYNNWPPLTFGGGTKVEIK
0.24	Ab55h-PM10 (antibody, V domains shown) VH: QVQLQESGPGLVKPSETLSLTCAVSGYSISGDYYWGWIRQPPGKGLEWIGSIYHSGYTYYNPSLKSRVTISVDTSKNQFSLKLSSVTAADTAVYYCARDSGWYVIAFDYWGQGTLVTVSS VL: EIVMTQSPATLSVSPGERATLSCRASQSVSSNLAWYQEKPGQAPRLLIYGASSRATGIPARFSGSGSGTEFTLTISSLQSEDFAVYYCQQYNNWPPLTFGGGTKVEIK
0.22	Ab55h-PM13 (antibody, V domains shown) VH: QVQLQESGPGLVKPSETLSLTCAVSGYSISGDYYWGWIRQPPGKGLEWIGSIYHSGYTYYNPSLKSRVTISVDTSKNQFSLKLSSVTAADTAVYYCARDVGWYVIAFDYWGQGTLVTVSS VL: EIVMTQSPATLSVSPGERATLSCRASQSVSSNLAWYQEKPGQAPRLLIYGASTRATGIPARFSGSGSGTEFTLTISSLQSEDFAVYYCQQYNNWPPLTFGGGTKVEIK

Source: patent publication US20210355220A1 (TIKCRO TECHNOLOGIES, published 2021)
